# Experimental data taken from patent publication US20230129258A1 (Bicycle, published 2023).
# Positions count from the first letter of the chain named. Starred links: 1 amine or outer side, 2 acyl side, 3 side chain; linkers in the order of their positions; H or OH if unused. Positions of bridges follow the written chain, without caps; N, C: chain ends. Non-standard residues stand in square brackets, D forms with d. Chains are numbered I, II in the order given. No end group written: not given here. dLys(PYA) = D-lysine Nε-acylated with 4-pentynoic acid, clicked (triazole) to the linker azide, O=C(CCc1cn([*:3])nn1)NCCCC[C@@H](N[*:1])C(=O)[*:2]; TATA = O=C(CC[*:1])N1CN(C(=O)CC[*:2])CN(C(=O)CC[*:3])C1; 1Nal = N[C@@H](Cc1cccc2ccccc12)C(=O)O; Hyp = O=C(O)[C@@H]1C[C@@H](O)CN1; hArg = N=C(N)NCCCC[C@H](N)C(=O)O; tBuAla = CC(C)(C)C[C@H](N)C(=O)O; Nle = CCCC[C@H](N)C(=O)O
# T1: rat Nectin-4 extracellular domain (rat, UniProt D3ZET1 31-348, biotinylated where captured on the streptavidin chip)
# T1 construct: extracellular domain
# T1 sequence: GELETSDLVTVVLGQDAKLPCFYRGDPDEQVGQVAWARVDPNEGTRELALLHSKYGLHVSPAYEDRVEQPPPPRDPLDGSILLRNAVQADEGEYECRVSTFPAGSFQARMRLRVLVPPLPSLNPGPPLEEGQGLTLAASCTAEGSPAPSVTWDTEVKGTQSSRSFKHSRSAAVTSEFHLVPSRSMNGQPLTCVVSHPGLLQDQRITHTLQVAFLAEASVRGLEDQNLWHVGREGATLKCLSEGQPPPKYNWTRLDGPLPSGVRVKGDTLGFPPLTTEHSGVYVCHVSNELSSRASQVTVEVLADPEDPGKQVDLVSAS
# T2: cyno (NHP) Nectin-4 extracellular domain (cyno (NHP), UniProt A0A2K5WES1 32-349, biotinylated where captured on the streptavidin chip)
# T2 construct: extracellular domain
# T2 sequence: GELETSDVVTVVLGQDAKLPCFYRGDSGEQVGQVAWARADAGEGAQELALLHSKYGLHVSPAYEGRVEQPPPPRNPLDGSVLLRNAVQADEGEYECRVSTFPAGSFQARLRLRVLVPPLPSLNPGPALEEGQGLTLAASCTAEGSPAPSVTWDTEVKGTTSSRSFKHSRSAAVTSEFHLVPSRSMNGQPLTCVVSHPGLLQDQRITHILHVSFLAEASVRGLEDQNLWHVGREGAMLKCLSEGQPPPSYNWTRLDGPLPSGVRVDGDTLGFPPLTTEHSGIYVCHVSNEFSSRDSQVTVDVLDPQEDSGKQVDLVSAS
# T3: mouse Nectin-4 extracellular domain (mouse, UniProt Q8R007 31-347, biotinylated where captured on the streptavidin chip)
# T3 construct: extracellular domain
# T3 sequence (looked up): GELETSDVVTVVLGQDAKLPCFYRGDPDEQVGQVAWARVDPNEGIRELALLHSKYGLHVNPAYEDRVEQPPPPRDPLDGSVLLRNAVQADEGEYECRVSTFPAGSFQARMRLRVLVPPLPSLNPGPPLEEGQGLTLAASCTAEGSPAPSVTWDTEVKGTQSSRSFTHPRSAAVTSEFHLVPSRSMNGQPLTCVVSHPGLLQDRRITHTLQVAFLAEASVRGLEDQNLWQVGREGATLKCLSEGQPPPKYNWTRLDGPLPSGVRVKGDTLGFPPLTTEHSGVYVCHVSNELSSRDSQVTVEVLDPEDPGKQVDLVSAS
# T4: human Nectin-4 extracellular domain (human, UniProt Q96NY8 32-349, biotinylated where captured on the streptavidin chip)
# T4 construct: extracellular domain; also called Nectin-4 (human); Biotinylated - Nectin-4 extracellular domain
# T4 sequence (looked up): T2 sequence with A39V, V230I
# T5: Nectin-2 (2229-N2, R&D Systems) (UniProt Q92692 32-360, limits assumed, biotinylated)
# T5 sequence (looked up): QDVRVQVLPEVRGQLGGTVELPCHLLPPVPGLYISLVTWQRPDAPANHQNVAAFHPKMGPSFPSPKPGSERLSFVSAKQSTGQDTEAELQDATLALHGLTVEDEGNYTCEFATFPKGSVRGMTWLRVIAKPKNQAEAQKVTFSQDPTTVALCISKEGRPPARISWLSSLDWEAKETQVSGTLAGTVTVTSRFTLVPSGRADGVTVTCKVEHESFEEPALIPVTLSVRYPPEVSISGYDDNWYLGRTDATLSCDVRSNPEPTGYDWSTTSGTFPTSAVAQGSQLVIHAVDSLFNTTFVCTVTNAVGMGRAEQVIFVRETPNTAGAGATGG
# T6: Nectin-like-2 (3519-S4-050, R&D Systems) (UniProt Q9BY67 45-374, biotinylated)
# T6 sequence (looked up): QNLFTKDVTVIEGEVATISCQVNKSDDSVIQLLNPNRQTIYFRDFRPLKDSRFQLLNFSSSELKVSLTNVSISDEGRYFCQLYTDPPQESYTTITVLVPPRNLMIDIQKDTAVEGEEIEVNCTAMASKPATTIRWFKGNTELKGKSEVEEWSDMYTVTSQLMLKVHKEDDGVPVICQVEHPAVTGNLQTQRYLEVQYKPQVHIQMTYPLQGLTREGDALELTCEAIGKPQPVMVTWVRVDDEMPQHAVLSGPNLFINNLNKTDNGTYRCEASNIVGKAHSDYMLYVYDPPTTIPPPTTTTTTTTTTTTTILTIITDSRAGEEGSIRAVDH
# T7: Nectin-1 (2880-N1, R&D Systems) (UniProt Q15223 31-334, limits assumed, biotinylated)
# T7 sequence (looked up): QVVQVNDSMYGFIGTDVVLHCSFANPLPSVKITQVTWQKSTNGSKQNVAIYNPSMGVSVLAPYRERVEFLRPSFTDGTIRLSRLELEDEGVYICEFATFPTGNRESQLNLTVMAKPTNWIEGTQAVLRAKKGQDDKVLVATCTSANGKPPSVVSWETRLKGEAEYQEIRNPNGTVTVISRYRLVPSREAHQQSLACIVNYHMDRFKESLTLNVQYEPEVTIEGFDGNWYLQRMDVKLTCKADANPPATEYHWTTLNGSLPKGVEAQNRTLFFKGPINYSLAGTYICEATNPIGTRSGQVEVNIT
# B1: heterotandem bicyclic peptide complex BCY11863 (peptide)
# peptide 1: CP[1Nal][dD]CM[hArg]DWSTP[Hyp]WC
# peptide 2: Ac-C[tBuAla]PE[dLys(PYA)]PYCFADPY[Nle]CA
# modifications: linker I:1-I:5-I:15, II:1-II:8-II:15 via TATA; not fully specified (bridges); also: 1:2 complex: BCY8116 + 2x BCY8928
# notes: also called Nectin-4/CD137 heterotandem
# What was measured:
# [1] = biological target: T1, rat Nectin-4 extracellular domain; test: SPR sandwich assay, BCY11863 captured on biotinylated human CD137, soluble Nectin-4 ECD passed over, n = 3
# [2] = biological target: T2, cyno (NHP) Nectin-4 extracellular domain; test: as above
# [3] = biological target: T3, mouse Nectin-4 extracellular domain; test: SPR direct binding, biotinylated Nectin-4 ECD on streptavidin chip, 25° C., n = 9
# [4] = biological target: T2, cyno (NHP) Nectin-4 extracellular domain; test: as above
# [5] = biological target: T4, human Nectin-4 extracellular domain; test: SPR, one example sensorgram (FIG. 21A), immobilized Nectin-4
# [6] = biological target: T5, Nectin-2 (2229-N2, R&D Systems); test: SPR, biotinylated target on streptavidin surface
# [7] = biological target: T6, Nectin-like-2 (3519-S4-050, R&D Systems); test: SPR, biotinylated target on streptavidin surface
# [8] = biological target: T7, Nectin-1 (2880-N1, R&D Systems); test: SPR, biotinylated target on streptavidin surface
binder,measurement,setting,value
B1,Kd,[1],25 nM
same,Kd,[2],28 nM
same,Kd,[3],4.6 nM
same,Kd,[4],27 nM
same,Kd,[5],4.1 nM
same,binding result,[6],no binding (tested: 5000 nM)
same,binding result,[7],no binding (tested: 5000 nM)
same,binding result,[8],no binding (tested: 5000 nM)
